Laboratory results as given in patent US20210206875A1, “ERBB-2 TARGETING AGENT AND A BISPECIFIC ANTIBODY WITH ANTIGEN-BINDING SITES THAT BIND AN EPITOPE ON AN EXTRACELLULAR PART OF ERB-2 AND ERBB-3, FOR TREATMENT OF AN INDIVIDUAL WITH AN ERBB-2, ERBB-2/ERBB-3 POSITIVE TUMOUR” (Merus N.V., priority 2017, published 2021).

Tests used:
BxPC-3-luc2 cells = experiment: HRG dependent BxPC-3-luc2 proliferation assay; format: cell-based, human
Protocol: (§1) SK-BR-3 cells were cultured in DMEM-F/12 supplemented with L-glutamine and 10% heat inactivated FBS. BxPC-3-luc2 cells were cultured in RPMI1640 supplemented with 10% heat inactivated FBS. MCF-7 cells were cultured in RPMI1640 supplemented with 100 μM, NEAA1 mM sodium pyruvate, 4 μg/ml insulin and 10% heat inactivated FBS.
Antibodies were diluted to concentrations of 10 and 1 μg/ml and added in a volume of 100 μl in 96-well black bottom plates (ABgene AB-0932). […] Fluorescence was measured at 550 nm excitation with 590 nm emission wave length.

MCF-7 cells = experiment: HRG dependent MCF-7 proliferation assay; format: cell-based, human; conditions: HRG dependent MCF-7 assay
Protocol: as §1
For the proliferation assay of MCF-7 and BxPC-3-luc2 cells, subconfluent cell cultures were washed with PBS, trypsinized and trypsin was inactivated by adding culture medium. Cells were washed twice in large volumes of assay medium (RPMI 1640 medium containing 0.05% BSA and 10 μg/ml Holo Transferrin). MCF-7 cells were diluted to 5×10^4 cells/ml in culture medium. Antibodies were diluted to concentrations of 10 and 1 μg/ml and added in a volume of 100 μl in 96-well black bottom plates (ABgene AB-0932). Cells were added at a density of 5000 cells/well in the presence of 1 ng/ml final concentration human Recombinant Human NRG1-beta 1/HRG1-beta 1 EGF Domain; (396-HB-050 RND). Human NRG1-beta 1/HRG1-beta 1 EGF Domain will hereinafter be referred to as HRG. […] Fluorescence was measured at 550 nm excitation with 590 nm emission wave length.
The IC50 for the bispecific antibodies, monoclonals and comparator antibodies was calculated using non-linear regression analysis with Prism software.

B1: #Ab6: anti-HER3 antibody of Merrimack Pharmaceuticals, recloned in IgG1 backbone (antibody, chains of the INN, looked up, V domains shown)
VH: EVQLLESGGGLVQPGGSLRLSCAASGFTFSHYVMAWVRQAPGKGLEWVSSISSSGGWTLYADSVKGRFTISRDNSKNTLYLQMNSLRAEDTAVYYCTRGLKMATIFDYWGQGTLVTVSS
VL: QSALTQPASVSGSPGQSITISCTGTSSDVGSYNVVSWYQQHPGKAPKLIIYEVSQRPSGVSNRFSGSKSGNTASLTISGLQTEDEADYYCCSYAGSSIFVIFGGGTKVTVL
modifications: IgG1
notes: anti-HER3 antibody of Merrimack Pharmaceuticals, recloned in IgG1 backbone
With B1 the “BxPC3 % Inhibition” value (BxPC-3-luc2 cells) was −7% and the IC50 (MCF-7 cells) was 0.504 nM.
